B1: A17d4(1) monoclonal antibody (antibody, V domains shown)
VH: QVTLRESGPALVKPTQTLTLTCTFSGFSLSTAGMSVGWIRQPPGKALEWLADIWWDGKKSYNPSLKDRLTISKDTSKNQVVLKVTNMDPADTATYYCARDMIFNFYFDVWGQGTTVTVSS
VL: DIQMTQSPSTLSASVGDRVTITCLPSSRVGYMHWYQQKPGKAPKLLIYDTMYQSSGVPSRFSGSGSGTEFTLTISSLQPDDFATYYCFQGSGYPFTFGGGTKVEIK
B2: P11d4 monoclonal antibody (antibody, V domains shown)
VH: QVTLRESGPALVKPTQTLTLTCTFSGFSLSTPGMSVGWIRQPPGKALEWLADIWWDGKKHYNPSLKDRLTISKDTSKNQVVLKVTNMDPADTATYYCARDMIFNWYFDVWGQGTTVTVSS
VL: DIQMTQSPSTLSASVGDRVTITCSPSSRVGYMHWYQQKPGKAPKLLIYDTMRLASGVPSRFSGSGSGTEFTLTISSLQPDDFATYYCFQGSGYPFTFGGGTKVEIK
B3: P12f2 monoclonal antibody (antibody, V domains shown)
VH: QVTLRESGPALVKPTQTLTLTCTFSGFSLSTPGMSVGWIRQPPGKALEWLADIWWDDKKHYNPSLKDRLTISKDTSKNQVVLKVTNMDPADTATYYCARDMIFNFYFDVWGQGTTVTVSS
VL: DIQMTQSPSTLSASVGDRVTITCSLSSRVGYMHWYQQKPGKAPKLLIYDTFYLSSGVPSRFSGSGSGTEFTLTISSLQPDDFATYYCFQGSGYPFTFGGGTKVEIK
B4: A8c7 monoclonal antibody (antibody, V domains shown)
VH: QVTLRESGPALVKPTQTLTLTCTFSGFSLSTAGMSVGWIRQPPGKALEWLADIWWDDKKSYNPSLKDRLTISKDTSKNQVVLKVTNMDPADTATYYCARDMIFNWYFDVWGQGTTVTVSS
VL: DIQMTQSPSTLSASVGDRVTITCSPSSRVGYMHWYQQKPGKAPKLLIYDTRYQSSGVPSRFSGSGSGTEFTLTISSLQPDDFATYYCFQGSGYPFTFGGGTKVEIK
B5: A12a6 monoclonal antibody (antibody, V domains shown)
VH: QVTLRESGPALVKPTQTLTLTCTFSGFSLSTAGMSVGWIRQPPGKALEWLADIWWDGKKDYNPSLKDRLTISKDTSKNQVVLKVTNMDPADTATYYCARDMIFNFYFDVWGQGTTVTVSS
VL: DIQMTQSPSTLSASVGDRVTITCSASSRVGYMHWYQQKPGKAPKLLIYDTFKLSSGVPSRFSGSGSGTEFTLTISSLQPDDFATYYCFQGSGYPFTFGGGTKVEIK
B6: P12f4 monoclonal antibody (antibody, V domains shown)
VH: QVTLRESGPALVKPTQTLTLTCTFSGFSLSTPGMSVGWIRQPPGKALEWLADIWWDGKKHYNPSLKDRLTISKDTSKNQVVLKVTNMDPADTATYYCARDMIFNFYFDVWGQGTTVTVSS
VL: DIQMTQSPSTLSASVGDRVTITCSLSSRVGYMHWYQQKPGKAPKLLIYDTRGLPSGVPSRFSGSGSGTEFTLTISSLQPDDFATYYCFQGSGYPFTFGGGTKVEIK
B7: A13c4 monoclonal antibody (antibody, V domains shown)
VH: QVTLRESGPALVKPTQTLTLTCTFSGFSLSTAGMSVGWIRQPPGKALEWLADIWWDGKKSYNPSLKDRLTISKDTSKNQVVLKVTNMDPADTATYYCARDMIFNFYFDVWGQGTTVTVSS
VL: DIQMTQSPSTLSASVGDRVTITCSLSSRVGYMHWYQQKPGKAPKLLIYDTMYQSSGVPSRFSGSGSGTEFTLTISSLQPDDFATYYCFQGSGYPFTFGGGTKVEIK
B8: A4B4 monoclonal antibody (antibody, V domains shown)
VH: QVTLRESGPALVKPTQTLTLTCTFSGFSLSTAGMSVGWIRQPPGKALEWLADIWWDDKKHYNPSLKDRLTISKDTSKNQVVLKVTNMDPADTATYYCARDMIFNFYFDVWGQGTTVTVSS
VL: DIQMTQSPSTLSASVGDRVTITCSASSRVGYMHWYQQKPGKAPKLLIYDTFFLDSGVPSRFSGSGSGTEFTLTISSLQPDDFATYYCFQGSGYPFTFGGGTKVEIK
B9: A1e9 monoclonal antibody (antibody, V domains shown)
VH: QVTLRESGPALVKPTQTLTLTCTFSGFSLSTAGMSVGWIRQPPGKALEWLADIWWDGKKHYNPSLKDRLTISKDTSKNQVVLKVTNMDPADTATYYCARDMIFNWYFDVWGQGTTVTVSS
VL: DIQMTQSPSTLSASVGDRVTITCSLSSRVGYMHWYQQKPGKAPKLLIYDTFKLSSGVPSRFSGSGSGTEFTLTISSLQPDDFATYYCFQGSGYPFTFGGGTKVEIK
B10: A1e9 Fab fragment (Fab, V domains shown)
VH: QVTLRESGPALVKPTQTLTLTCTFSGFSLSTAGMSVGWIRQPPGKALEWLADIWWDGKKHYNPSLKDRLTISKDTSKNQVVLKVTNMDPADTATYYCARDMIFNWYFDVWGQGTTVTVSS
VL: DIQMTQSPSTLSASVGDRVTITCSLSSRVGYMHWYQQKPGKAPKLLIYDTFKLSSGVPSRFSGSGSGTEFTLTISSLQPDDFATYYCFQGSGYPFTFGGGTKVEIK
B11: A17d4(1) Fab fragment (Fab, V domains shown)
VH: QVTLRESGPALVKPTQTLTLTCTFSGFSLSTAGMSVGWIRQPPGKALEWLADIWWDGKKSYNPSLKDRLTISKDTSKNQVVLKVTNMDPADTATYYCARDMIFNFYFDVWGQGTTVTVSS
VL: DIQMTQSPSTLSASVGDRVTITCLPSSRVGYMHWYQQKPGKAPKLLIYDTMYQSSGVPSRFSGSGSGTEFTLTISSLQPDDFATYYCFQGSGYPFTFGGGTKVEIK
B12: P12f2 Fab fragment (Fab, V domains shown)
VH: QVTLRESGPALVKPTQTLTLTCTFSGFSLSTPGMSVGWIRQPPGKALEWLADIWWDDKKHYNPSLKDRLTISKDTSKNQVVLKVTNMDPADTATYYCARDMIFNFYFDVWGQGTTVTVSS
VL: DIQMTQSPSTLSASVGDRVTITCSLSSRVGYMHWYQQKPGKAPKLLIYDTFYLSSGVPSRFSGSGSGTEFTLTISSLQPDDFATYYCFQGSGYPFTFGGGTKVEIK
B13: A8c7 Fab fragment (Fab, V domains shown)
VH: QVTLRESGPALVKPTQTLTLTCTFSGFSLSTAGMSVGWIRQPPGKALEWLADIWWDDKKSYNPSLKDRLTISKDTSKNQVVLKVTNMDPADTATYYCARDMIFNWYFDVWGQGTTVTVSS
VL: DIQMTQSPSTLSASVGDRVTITCSPSSRVGYMHWYQQKPGKAPKLLIYDTRYQSSGVPSRFSGSGSGTEFTLTISSLQPDDFATYYCFQGSGYPFTFGGGTKVEIK
B14: A12a6 Fab fragment (Fab, V domains shown)
VH: QVTLRESGPALVKPTQTLTLTCTFSGFSLSTAGMSVGWIRQPPGKALEWLADIWWDGKKDYNPSLKDRLTISKDTSKNQVVLKVTNMDPADTATYYCARDMIFNFYFDVWGQGTTVTVSS
VL: DIQMTQSPSTLSASVGDRVTITCSASSRVGYMHWYQQKPGKAPKLLIYDTFKLSSGVPSRFSGSGSGTEFTLTISSLQPDDFATYYCFQGSGYPFTFGGGTKVEIK
B15: P12f4 Fab fragment (Fab, V domains shown)
VH: QVTLRESGPALVKPTQTLTLTCTFSGFSLSTPGMSVGWIRQPPGKALEWLADIWWDGKKHYNPSLKDRLTISKDTSKNQVVLKVTNMDPADTATYYCARDMIFNFYFDVWGQGTTVTVSS
VL: DIQMTQSPSTLSASVGDRVTITCSLSSRVGYMHWYQQKPGKAPKLLIYDTRGLPSGVPSRFSGSGSGTEFTLTISSLQPDDFATYYCFQGSGYPFTFGGGTKVEIK
B16: A13c4 Fab fragment (Fab, V domains shown)
VH: QVTLRESGPALVKPTQTLTLTCTFSGFSLSTAGMSVGWIRQPPGKALEWLADIWWDGKKSYNPSLKDRLTISKDTSKNQVVLKVTNMDPADTATYYCARDMIFNFYFDVWGQGTTVTVSS
VL: DIQMTQSPSTLSASVGDRVTITCSLSSRVGYMHWYQQKPGKAPKLLIYDTMYQSSGVPSRFSGSGSGTEFTLTISSLQPDDFATYYCFQGSGYPFTFGGGTKVEIK
B17: A4B4 Fab fragment (Fab, V domains shown)
VH: QVTLRESGPALVKPTQTLTLTCTFSGFSLSTAGMSVGWIRQPPGKALEWLADIWWDDKKHYNPSLKDRLTISKDTSKNQVVLKVTNMDPADTATYYCARDMIFNFYFDVWGQGTTVTVSS
VL: DIQMTQSPSTLSASVGDRVTITCSASSRVGYMHWYQQKPGKAPKLLIYDTFFLDSGVPSRFSGSGSGTEFTLTISSLQPDDFATYYCFQGSGYPFTFGGGTKVEIK
B18: A13a11 Fab fragment (Fab, V domains shown)
VH: QVTLRESGPALVKPTQTLTLTCTFSGFSLSTAGMSVGWIRQPPGKALEWLADIWWDDKKHYNPSLKDRLTISKDTSKNQVVLKVTNMDPADTATYYCARDMIFNWYFDVWGQGTTVTVSS
VL: DIQMTQSPSTLSASVGDRVTITCSPSSRVGYMHWYQQKPGKAPKLLIYDTYRHSSGVPSRFSGSGSGTEFTLTISSLQPDDFATYYCFQGSGYPFTFGGGTKVEIK
B19: A1h5 Fab fragment (Fab, V domains shown)
VH: QVTLRESGPALVKPTQTLTLTCTFSGFSLSTAGMSVGWIRQPPGKALEWLADIWWDGKKHYNPSLKDRLTISKDTSKNQVVLKVTNMDPADTATYYCARDMIFNWYFDVWGQGTTVTVSS
VL: DIQMTQSPSTLSASVGDRVTITCSLSSSVGYMHWYQQKPGKAPKLLIYDTFFHRSGVPSRFSGSGSGTEFTLTISSLQPDDFATYYCFQGSGYPFTFGGGTKVEIK

Target: RSV (Long strain) F protein on infectious virus (respiratory syncytial virus (Long strain)) (UniProt P12568)
Experiment: cell-based or functional assay

RSV (Long strain) F protein on infectious virus (respiratory syncytial virus (Long strain)), sequence (P12568 26-574): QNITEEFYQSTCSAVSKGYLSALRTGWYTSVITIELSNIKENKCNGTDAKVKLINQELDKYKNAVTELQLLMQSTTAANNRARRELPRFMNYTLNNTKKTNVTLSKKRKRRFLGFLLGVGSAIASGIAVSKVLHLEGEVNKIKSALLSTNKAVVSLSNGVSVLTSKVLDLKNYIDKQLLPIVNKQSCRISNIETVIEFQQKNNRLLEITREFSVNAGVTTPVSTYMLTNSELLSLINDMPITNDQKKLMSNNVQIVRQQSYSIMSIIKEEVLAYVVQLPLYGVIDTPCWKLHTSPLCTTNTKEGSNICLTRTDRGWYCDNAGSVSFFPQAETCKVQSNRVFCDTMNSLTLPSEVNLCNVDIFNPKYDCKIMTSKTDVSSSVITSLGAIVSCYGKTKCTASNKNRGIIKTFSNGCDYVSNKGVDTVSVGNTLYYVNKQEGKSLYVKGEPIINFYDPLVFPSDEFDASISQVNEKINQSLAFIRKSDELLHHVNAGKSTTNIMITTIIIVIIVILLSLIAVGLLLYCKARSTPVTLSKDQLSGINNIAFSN

Going from B1 to B2, the Fold Difference (Control IC50), against palivizumab rises from 15 fold to 19 fold.

Compared with B3, B4 is lower in Fold Difference (Control IC50), against palivizumab: 24 fold for the first, 14 fold for the second.

First: B5
Second: B6
The Fold Difference (Control IC50), against palivizumab of the first is lower: 15 fold for the first, 23 fold for the second.

First: B7
Second: B8
The Fold Difference (Control IC50), against palivizumab of the first is lower: 14 fold for the first, 35 fold for the second.

Going from B9 to B10, the Fold Difference (Control IC50), against palivizumab falls from 8 fold to 4 fold.

First: B11
Second: B12
The Fold Difference (Control IC50), against palivizumab of the first is higher: 31 fold for the first, 16 fold for the second.

Going from B13 to B14, the Fold Difference (Control IC50), against palivizumab falls from 34 fold to 17 fold.

First: B15
Second: B16
The Fold Difference (Control IC50), against palivizumab of the first is lower: 15 fold for the first, 21 fold for the second.

First: B17
Second: B18
The Fold Difference (Control IC50), against palivizumab of the first is higher: 13 fold for the first, 5 fold for the second.

B19 was tested, and the Fold Difference (Control IC50), against palivizumab was 3 fold.

First: B1
Second: B2
The Fold Difference (Curve IC50), against palivizumab of the first is lower: 13 fold for the first, 21 fold for the second.

Compared with B3, B4 is lower in Fold Difference (Curve IC50), against palivizumab: 20 fold for the first, 13 fold for the second.

Compared with B5, B6 is higher in Fold Difference (Curve IC50), against palivizumab: 13 fold for the first, 19 fold for the second.

First: B7
Second: B8
The Fold Difference (Curve IC50), against palivizumab of the first is lower: 12 fold for the first, 27 fold for the second.

Going from B9 to B10, the Fold Difference (Curve IC50), against palivizumab falls from 7 fold to 3 fold.

First: B11
Second: B12
The Fold Difference (Curve IC50), against palivizumab of the first is higher: 25 fold for the first, 11 fold for the second.

Going from B13 to B14, the Fold Difference (Curve IC50), against palivizumab rises from 3 fold to 16 fold.

Compared with B15, B16 is higher in Fold Difference (Curve IC50), against palivizumab: 10 fold for the first, 17 fold for the second.

First: B17
Second: B18
The Fold Difference (Curve IC50), against palivizumab of the first is higher: 11 fold for the first, 4 fold for the second.

Work on B19 yielded a Fold Difference (Curve IC50), against palivizumab of 2 fold.

— patent publication US20100278929A1
